Here are results for two substances from article PMC8764033, “Single-molecule analysis of specificity and multivalency in binding of short linear substrate motifs to the APC/C” (Nature Communications, 2022).

Test [1] deals with Cdc20-activated yeast APC/C with the mutant Apc10 subunit Apc10-4A (S. cerevisiae | S. cerevisiae (endogenous in yeast)) (UniProt P26309). The experiment in a line: single-molecule off-rate (SMOR) assay, TIRF microscopy; target held on PEG/PEG-biotin glass by NeutrAvidin and biotinylated anti-Strep-Tag II antibody (tag on the activator); dye-labeled ligand (peptide no greater than 1 nM) in buffer C + BSA (20 mM HEPES pH 7.5, 150 mM KCl, 10% glycerol, 0.05% Tween-20, 1 mM DTT) with oxygen scavengers; mean dwell time from an exponential distribution; dwell times below 100 ms noted as single-frame (SF).
Cdc20-activated yeast APC/C with the mutant Apc10 subunit Apc10-4A (S. cerevisiae | S. cerevisiae (endogenous in yeast)), sequence (P26309 whole entry, looked up, change not shown, tested part not stated): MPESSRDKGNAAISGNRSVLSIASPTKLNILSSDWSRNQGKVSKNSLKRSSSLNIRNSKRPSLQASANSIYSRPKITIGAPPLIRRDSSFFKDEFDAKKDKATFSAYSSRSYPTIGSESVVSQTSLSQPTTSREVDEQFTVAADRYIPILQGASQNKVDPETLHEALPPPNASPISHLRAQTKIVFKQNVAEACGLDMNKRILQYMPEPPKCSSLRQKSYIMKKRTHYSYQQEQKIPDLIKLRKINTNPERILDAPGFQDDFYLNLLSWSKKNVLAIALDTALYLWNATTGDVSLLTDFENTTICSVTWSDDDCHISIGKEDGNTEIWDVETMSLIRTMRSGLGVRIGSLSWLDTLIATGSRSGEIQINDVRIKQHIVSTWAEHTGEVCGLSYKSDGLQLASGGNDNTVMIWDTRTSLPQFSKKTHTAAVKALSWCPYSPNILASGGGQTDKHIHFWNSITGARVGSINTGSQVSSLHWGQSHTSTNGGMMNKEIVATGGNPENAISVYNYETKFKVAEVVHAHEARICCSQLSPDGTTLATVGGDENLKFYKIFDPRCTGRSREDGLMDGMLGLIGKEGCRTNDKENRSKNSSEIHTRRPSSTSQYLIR

Test [2] addresses Cdh1-activated yeast APC/C with the mutant Apc10 subunit Apc10-4A (S. cerevisiae | S. cerevisiae (endogenous in yeast)) (UniProt P53197). The description is as above.
Test [3] deals with Cdh1-activated yeast APC/C (S. cerevisiae | S. cerevisiae (endogenous in yeast)) (UniProt P53197). The experiment in a line: fluorescence polarisation + other: single-molecule off-rate (SMOR) assay; inferred constants: kon from the KD of anisotropy and the koff of SMOR; KD for APC/C^Cdh1 from the dwell time with the kon of Cdh1 alone assumed. A general note: Fluorescence polarisation rises when a labelled molecule tumbles more slowly, as on binding a larger partner.

For test [4], the target named is Cdc20-activated yeast APC/C (S. cerevisiae | S. cerevisiae (endogenous in yeast)) (UniProt P26309). The test can be described thus: single-molecule off-rate (SMOR) assay, TIRF microscopy; target held on PEG/PEG-biotin glass by NeutrAvidin and biotinylated anti-Strep-Tag II antibody (tag on the activator); dye-labeled ligand (peptide no greater than 1 nM) in buffer C + BSA (20 mM HEPES pH 7.5, 150 mM KCl, 10% glycerol, 0.05% Tween-20, 1 mM DTT) with oxygen scavengers; mean dwell time from an exponential distribution; dwell times below 100 ms noted as single-frame (SF).

Test [5] has as its target Cdh1-activated yeast APC/C (S. cerevisiae | S. cerevisiae (endogenous in yeast)) (UniProt P53197). Described as above.

Hsl1 fragment (amino acids 667–872) with C-terminal HaloTag, wild-type degrons, sequence (P34244 667-872): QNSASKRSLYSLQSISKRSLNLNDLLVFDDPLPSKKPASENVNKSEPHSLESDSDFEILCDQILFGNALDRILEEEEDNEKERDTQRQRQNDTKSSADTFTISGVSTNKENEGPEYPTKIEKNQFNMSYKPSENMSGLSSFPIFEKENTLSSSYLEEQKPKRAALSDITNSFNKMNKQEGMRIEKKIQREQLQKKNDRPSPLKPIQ
Cdh1-activated yeast APC/C with the mutant Apc10 subunit Apc10-4A (S. cerevisiae | S. cerevisiae (endogenous in yeast)), sequence (P53197 whole entry, looked up, change not shown, tested part not stated): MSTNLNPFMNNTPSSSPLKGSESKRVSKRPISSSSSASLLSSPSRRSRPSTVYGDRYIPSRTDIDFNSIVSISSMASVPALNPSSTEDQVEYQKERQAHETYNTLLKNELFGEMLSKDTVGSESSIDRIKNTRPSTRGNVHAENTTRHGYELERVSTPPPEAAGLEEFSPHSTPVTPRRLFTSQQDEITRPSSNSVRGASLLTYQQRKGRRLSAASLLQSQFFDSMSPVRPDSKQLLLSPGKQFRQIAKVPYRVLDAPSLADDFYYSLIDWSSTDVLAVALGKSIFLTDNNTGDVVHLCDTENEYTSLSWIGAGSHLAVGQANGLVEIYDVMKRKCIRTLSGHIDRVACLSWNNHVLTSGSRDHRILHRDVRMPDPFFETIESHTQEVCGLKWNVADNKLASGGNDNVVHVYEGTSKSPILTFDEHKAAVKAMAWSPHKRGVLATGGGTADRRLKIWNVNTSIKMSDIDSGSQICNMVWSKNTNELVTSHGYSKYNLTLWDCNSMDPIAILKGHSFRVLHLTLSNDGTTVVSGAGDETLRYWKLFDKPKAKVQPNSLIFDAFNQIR

Regarding Cy5-labeled Hsl1 D box peptide, the results for the mean dwell time in test [1] and in test [2] were 0.152 s and 0.375 s, respectively.

As a reminder, the Kd is the constant that tells how readily two partners part at equilibrium. In the case of “Hsl1 fragment (amino acids 667–872) with C-terminal HaloTag, wild-type degrons (from UniProt P34244 667-872) (domain or fragment)”, the dissociation constant (Kd) in test [3] is 4 nM. In addition, the mean dwell time in test [1] came to 0.449 s; in test [2], 75.9 s; in test [4] it was 0.518 s; in test [5], 321 s.
